Data: PMC3182920

T1: human nectin-1 ectodomain, nectin-1(346t) (human), Q15223
T1 chain: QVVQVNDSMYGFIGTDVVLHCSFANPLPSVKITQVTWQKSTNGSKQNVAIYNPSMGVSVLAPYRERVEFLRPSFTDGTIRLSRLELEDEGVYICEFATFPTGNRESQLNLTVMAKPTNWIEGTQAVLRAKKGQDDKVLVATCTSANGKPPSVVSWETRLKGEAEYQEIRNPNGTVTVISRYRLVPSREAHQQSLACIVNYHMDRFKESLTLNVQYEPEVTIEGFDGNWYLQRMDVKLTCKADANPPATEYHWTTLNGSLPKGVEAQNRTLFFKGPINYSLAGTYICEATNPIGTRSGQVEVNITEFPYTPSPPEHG


Key:
[1] = target: HSV-1 glycoprotein D ectodomain truncated at residue 306 (gD306t); assay: ELISA; details: read at the highest gD(306t) concentration, about 300 µg/ml; N1V-MBP immobilized; parent: est. 1.5; read off a plot
anti-nectin-1 Ig CK6 = assay: ELISA; details: sub-panel CK6 (80-105); immobilized antibody captures N1V-MBP; detection with anti-MBP-HRP; parent: est. 100; read off a plot
MAb CK41 = assay: ELISA; details: sub-panel CK41 (conf); immobilized antibody captures N1V-MBP; detection with anti-MBP-HRP; parent: est. 100; read off a plot
[2] = target: human nectin-1 ectodomain, nectin-1(346t) (human) (UniProt Q15223); assay: SEC-MALS; SEC combined with multi-angle light scattering, purified proteins in solution; data not shown
[3] = target: T1, human nectin-1 ectodomain, …; assay: as above; details: remark: other sources report otherwise

| stoichiometry N [3] | Molecule | response [1] | percent of parent (% wt detection) (anti-nectin-1 Ig CK6) | percent of parent (% wt detection) (MAb CK41) | stoichiometry N [2] |
| --- | --- | --- | --- | --- | --- |
|  | nectin-1 V-domain fused to maltose binding protein (N1V-MBP), wild type (from UniProt Q15223-1) N82Y | 0.12 OD405nm | 68 |  |  |
|  | nectin-1 V-domain fused to maltose binding protein (N1V-MBP), wild type (from UniProt Q15223-1) F129W | 1.3 OD405nm | 91 | 55 |  |
|  | HSV-1 KOS glycoprotein D ectodomain truncated at residue 285 (gD285t) (domain or fragment) |  |  |  | 1 |
|  | nectin-1 V-domain fused to maltose binding protein (N1V-MBP), wild type (from UniProt Q15223-1) S84R | 1.3 OD405nm | 90 | 120 |  |
|  | nectin-1 V-domain fused to maltose binding protein (N1V-MBP), wild type (from UniProt Q15223-1) F129S | 0.2 OD405nm | 93 | 7 |  |
|  | nectin-1 V-domain fused to maltose binding protein (N1V-MBP), wild type (from UniProt Q15223-1) T66Q | 1.4 OD405nm | 110 | 71 |  |
|  | nectin-1 V-domain fused to maltose binding protein (N1V-MBP), wild type (from UniProt Q15223-1) S84Y | 0.55 OD405nm | 80 | 31 |  |
| 2 | human nectin-1 ectodomain, nectin-1(346t), Q15223-1 31-346 (receptor) QVVQVNDSMYGFIGTDVVLHCSFANPLPSVKITQVTWQKSTNGSKQNVAIYNPSMGVSVLAPYRERVEFLRPSFTDGTIRLSRLELEDEGVYICEFATFPTGNRESQLNLTVMAKPTNWIEGTQAVLRAKKGQDDKVLVATCTSANGKPPSVVSWETRLKGEAEYQEIRNPNGTVTVISRYRLVPSREAHQQSLACIVNYHMDRFKESLTLNVQYEPEVTIEGFDGNWYLQRMDVKLTCKADANPPATEYHWTTLNGSLPKGVEAQNRTLFFKGPINYSLAGTYICEATNPIGTRSGQVEVNITEFPYTPSPPEHG |  |  |  |  |
